Where a chain is given by its changes, count along the chain named.
T1: R12 AA 75-139
T1 construct: also called GST fusion protein construct R12 (AITR deletion mutant)
T1 GST fusion protein: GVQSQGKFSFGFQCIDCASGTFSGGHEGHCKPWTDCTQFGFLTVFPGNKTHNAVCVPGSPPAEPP

T2: Glutathione S-transferase (GST)-tagged AITR (human, UniProt Q9Y5U5 26-139)
T2 construct: also called GST-AITR antigen; GST-AITR analyte; not shown: Glutathione S-transferase (GST) tag
T2 sequence (looked up): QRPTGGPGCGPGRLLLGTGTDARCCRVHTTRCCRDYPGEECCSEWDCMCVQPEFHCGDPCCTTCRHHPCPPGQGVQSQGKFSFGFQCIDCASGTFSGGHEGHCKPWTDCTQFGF

T3: human AITR expressed on the cell surface (human, UniProt Q9Y5U5 26-241)
T3 sequence (looked up): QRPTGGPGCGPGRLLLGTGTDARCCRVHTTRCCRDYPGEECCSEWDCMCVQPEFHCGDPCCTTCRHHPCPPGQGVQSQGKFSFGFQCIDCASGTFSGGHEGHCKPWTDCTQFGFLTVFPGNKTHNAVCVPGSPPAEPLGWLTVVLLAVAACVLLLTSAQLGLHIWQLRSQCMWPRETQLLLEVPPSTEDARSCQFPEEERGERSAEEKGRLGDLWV

B1: IRTCA-A (A27) anti-AITR monoclonal antibody (antibody, V domains shown)
VH: QVQLVQSGTQVKMPGASVKVSCKASGYTFDDYGIGWVRQAPGQGLEWMGWISPYTHRTNSSPKLQDRVTMTTDTSTSTAYMELRSLRSDDTAVYYCARDGTYYDFWSGYFDNGAFDIWGQGTLVTVSS
VL: QSVVTQPPSVSAAPGQKVTISCSGSTSNIGNNYVSWYQQLPGTAPKLLIYDNYKRPSGIPDRFSGSKSGTSATLGITGLRTGDEADYFCGTWDSSLNAWVFGGGTKLTVL
notes: Monoclonal antibody form, detected with anti-human IgG-HRP; constant regions not specified for this antibody
B2: H1F1.M69 (H1F1.H2.J1/H1F1.L3.J1) (antibody, V domains shown)
VH: QVQLVQSGAQVKMPGESLKVSCKASGYTFTDYGMGWVRQAPGQGLEWMGWISPYTGRTNSSDKFQGRVTMTRDTSTSTAYMELRSLRSEDTAVYYCARDGTYYDFWSGYFDNNAFDIWGQGTLVTVSS
VL: B1 VL with A12G, K17R, I59V, T73S, G75A, R80Q, G82E, F88Y
notes: Made in Expi293 cells from HC and LC DNA
B3: H1F1 anti-AITR monoclonal antibody (antibody, V domains shown)
VH: B1 VH with G113N
VL: B1 VL
notes: Bivalent antibody captured by anti-human IgG(Fc); constant regions not specified for this antibody; also called parent antibody H1F1
B4: Parental IRTCA-A Fab (Fab, V domains shown)
VH: B1 VH
VL: B1 VL
B5: IRTCA-A14 (Clone H2F8) Fab (Fab, V domains shown)
VH: B1 VH with N112T, G113A
VL: B1 VL
B6: IRTCA-A12 (Clone H2A10) Fab (Fab, V domains shown)
VH: B1 VH with G113A, A114T, I117F
VL: B1 VL
B7: IRTCA-A10 (Clone H1A10) Fab (Fab, V domains shown)
VH: B1 VH with G113A, I117S
VL: B1 VL
B8: IRTCA-A1 (Clone L1E9) Fab (Fab, V domains shown)
VH: B1 VH
VL: B1 VL with T91S, D93E, S95G, L96S, W99Y, V100K
B9: IRTCA-A15 (Clone H1F1) Fab (Fab, V domains shown)
VH: B1 VH with G113N
VL: B1 VL
B10: H1F1.M74 (H1F1.H8/H1F1.L3.J2) (antibody, V domains shown)
VH: B2 VH with T30D, G44C
VL: QSVVTQPPSVSGAPGQRVTISCSGSTSNIGNNYVSWYQQLPGTAPKLLIYDNYKRPSGVPDRFSGSKSGTSASLAITGLQSEDEADYYCGSWESGSNAYKFGGGTKLTVL
notes: as for B2

Molecular target: T1, R12 AA 75-139
Assay: Western blot and ELISA on GST-AITR deletion constructs
Procedure: Binding of the anti-AITR antibodies IRTCA-A (A27), H1F1, H1F1M69 and H1F1M74 to the GST-fusion proteins R1-R12 was assessed using Western blot analysis, in which the GST-fusion proteins were resolved by 12% SDS-PAGE and subjected to immunoblotting using the antibodies IRTCA-A, H1F1, H1F1M69 and H1F1M74. Anti-Human IgG-HRP (1:5000; Jackson Laboratories, Bar Harbor, Me.) was used as the secondary antibody. Detection of chemiluminescence was obtained by using SuperSignal West Pico Chemiluminescent Substrate (Pierce, Rockford, Ill.).

| binding result | Binder |
| --- | --- |
| no binding | B1 |
| no binding | B2 |
| no binding | B3 |

Molecular target: T2, Glutathione S-transferase (GST)-tagged …
Assay: KD ratio against parental IRTCA-A, repeated from the SPR of Table 3

| KD Ratio [fold] | Binder |
| --- | --- |
| 1 | B4 |
| 30.1 | B5 |
| 27.6 | B6 |
| 8.4 | B7 |
| 8.2 | B8 |
| 44.4 | B9 |

Molecular target: T2, Glutathione S-transferase (GST)-tagged …
Assay: SPR (Biacore T200), antibody captured by anti-human IgG(Fc), GST-AITR analyte 3.12-100 nM
Procedure: This example assesses the ability of mutant anti-AITR antibodies to bind to an AITR antigen recognized by the parent antibody, H1F1. Surface plasmon resonance was used in order to determine the ability of mutant anti-AITR antibodies to bind to AITR.
A Biacore T200 with a CMS sensor chip was run using HBS-EP running buffer at pH 7.4 and 3M magnesium chloride regeneration buffer. Anti-human IgG(Fc) antibodies were immobilized to the CMS chip via amine coupling and 6 minute injections at a flow rate of 5 μL/minute were performed with an immobilization buffer of 10 mM sodium acetate at pH 5.0. The capture antibodies tested were parent antibody H1F1 and mutant antibodies M69 and M74. Glutathione S-transferase (GST)-tagged AITR analyte was injected at concentrations of 3.12, 6.25, 12.5, 25, 50 and 100 nM, with an association time of 150 seconds and a dissociation time of 240 seconds.

| Kd [nM] | Binder |
| --- | --- |
| 0.657 | B2 |
| 0.966 | B10 |
| 0.789 | B3 |

Molecular target: T2, Glutathione S-transferase (GST)-tagged …
Assay: KD ratio against parental IRTCA-A, repeated from the SPR of Table 3
Remark: another data set of the same source

| KD Ratio [fold] | Binder |
| --- | --- |
| 1 | B4 |
| 30.1 | B5 |
| 27.6 | B6 |
| 8.4 | B7 |
| 8.2 | B8 |
| 44.4 | B9 |

Molecular target: T2, Glutathione S-transferase (GST)-tagged …
Assay: SPR, Fab against the AITR antigen; ratio against parental IRTCA-A

| KD Ratio [fold] | Binder |
| --- | --- |
| 1 | B4 |
| 30.1 | B5 |
| 27.6 | B6 |
| 8.38 | B7 |
| 8.2 | B8 |
| 44.4 | B9 |

Molecular target: T3, human AITR expressed on the cell surface
Assay: cell-based or functional assay

| secretion of IFN-γ by CD4+ T cells at 0.5 µg, against IRTCA-A [%] | Binder |
| --- | --- |
| ≥ 200 | B5 |
| ≥ 200 | B6 |
| ≥ 200 | B9 |

Molecular target: T2, Glutathione S-transferase (GST)-tagged …
Assay: SPR, Fab against the AITR antigen

| Ka [M⁻¹] | Kd [nM] | koff [s⁻¹] | kon [M⁻¹ s⁻¹] | Binder |
| --- | --- | --- | --- | --- |
| 8.74e+06 | 114 | 0.00134 | 11700 | B4 |
| 2.64e+08 | 3.79 | 0.00027 | 71100 | B5 |
| 2.42e+08 | 4.13 | 0.000288 | 69700 | B6 |
| 7.34e+07 | 13.6 | 0.000565 | 41500 | B7 |
| 7.18e+07 | 13.9 | 0.000412 | 29600 | B8 |
| 3.9e+08 | 2.57 | 0.000334 | 130000 | B9 |

Molecular target: T2, Glutathione S-transferase (GST)-tagged …
Assay: KD ratio against parental IRTCA-A, repeated from the SPR of Table 3
Remark: another data set of the same source

| KD Ratio [fold] | Binder |
| --- | --- |
| 1 | B4 |
| 30.1 | B5 |
| 27.6 | B6 |
| 8.4 | B7 |
| 8.2 | B8 |
| 44.4 | B9 |

Source: patent US20190330358A1 (EUTILEX, published 2019)
